Experimental data from the DeepSol protein solubility set.

Experiment: soluble on expression in E. coli; label from the status in PepcDB or PDB records

Row | Sequence | soluble on expression in E. coli
1 | MTVEASRPARSRQAVIFCYNAGYLPFALHAAERIDRLTPGRAFDICICHGEEPILVPDSLSRLDVRLIRIDTTGVFTGLRLDPGRTHDVYLRLALPQALAADYDRILYLDADIFVQGGDFTALLGLDLGNHPLGAVRDNIQWRTPERRAEQFRRLGIPAAPYFNAGLLLMDVARYNEMNLLDRCVELGRREASRMIRHDQNLYNAVLRGDWAELSPMWNWQYSWSARLFEAMRYPHIVHFIGTLKPWADRKGHYSPRFAQSYDRFIADHFPDRPRNPVSGGLSPDSRMMRRMLVKHFLSSSKLARYLDRFPSDLTVIRLEHHHHHH | not soluble
2 | MTVETFHPKQTTTLETPAKTLEAASADSVNTGNVATGNRIGFVSLGCPKNLVDSERILTQLRIDGYEVTNSYDNADLVIVNTCGFIDAAVEESLDAVREALEENGKVIVTGCLGAKENQIREVHPDVLEITGPHSYEAVLKHVHKYVPKPEHNPFTSLIPQTGVKLTPKHYAYLKISEGCDNRCTFCIIPALRGDLDSRGAGSVLDEAKRLVEAGVQEILVVSQDTSAYGKDKGGRTDFWNGMPVKQDITSLARQLGKMGAWVRLHYIYPYPWVDDLIPLMAEGLILPYLDIPMQHASPRILKMMKRPGRVDRQLEAIQRWREICPDLVIRSTFIVGFPGETEEDFEMLLDFLREARLDRVGCFKYSEVEGAVANTIAELISEEVKEDRYHRFMEVQAEISAERLARFVGRTMDILIDDVDEEGAIGRSFADAPEIDGMVFINGETELEPGMLVRAVITHSDEHDLWAELVDADAEDEVEALEHHHHHH | soluble
3 | MTVSLLDSSTRYHAVTALNGNVLFSGARRPMPTVMLLHTPPPEFIRSQIQQMVVDYVTDISMVAIAPGNPLYNLYQYGVGYEVHLYLNAMNGSQSLTVELIVALDDEDPETVLGFLLYLPVQDDPQACAVAYMAVLESHRCQGIARLMLDRMVSRYAHAELYCTVAKVPYFQAMGFQVLGARGPQVIMNTRDHGTDGLLAVMDIAPIYSSVEVRQIHAYLLKQHGNTAMLDAEKQRDHHLDRMTREARAFAEQHLENGDSVHGVSATVRLH | not soluble
4 | MTVYNRTKQKTEDLVTEGAQAADTPRLAAKSADIVITMLADDDSVSTVTFGEDGLLEGLAENGIHISMSTISVEFSEKLAAAHAEKGQFFLAAPVLGRPDAAAKAALRIITAGPAEAKQAAKPLLDSLSQQIFDVGEESKTANAAKISINFLLVSMLEALSESFLMMEKYGLEQKQFLEIASALFGSPVYQNYGTIMAEQKFEPAGFKMSLGLKDTNLALAAAKRVSANLPLAELAKSHFESGIEKGFGDLDWAALIKCIK | not soluble
5 | MTYDYVIGMDACKYFHHACVLDIDGTQVLSKRINQNEQSLRALFSAFSAYDHKVLVVVDQPNNIGRLTVAVAQDIGIDVRYLPGLAMRQLSRIHAGNAKTDIRDAYIIAHAAKNLPESLRSVDRVEEAFLQLKVLNGIDEDLARSYTRLINQIRSALVGCYPQFEQALRGQIIHRKWVLHLLARYGGPTKIKRLGKAKAAAFARRYKARNPEPVLDAIFAAISEQTVTIAGAHYAEMGVAMSAKDALLKLEHRQQIEKEVIELINDIPHTQFLLSMPGIGPKTAAQILMTAGDMSDFPSAGHLASYAGLSPRTNQSGTSIMSNSLNRAGNKKLKNALWQSSFASIRFHERSRQFYERKRREGKRHNAAVVALARRRLNVLYAMMRNHEHYHDPAPSQEDLAA | not soluble
6 | MTYEAFVELVERLWEEVPEDFKRGLQGVHVFPEAKPEPGLEGVWRLGEYLDPGPPSAFGGFEDLGRHIALYYGSFLEVAGEGFDWEAEVWETMLHELRHHLESLAGRDDLVQEDLRRLDAFRRGGPSGEG | soluble
7 | MTYQTIVVAVDGSKEAEWALKKAIQIAKRNGAKLILSHIIDLRGFTTVEAHDYALAERSEQYANELLERYKNEAIAAGLDDVDIAVEFGSPKVKIAKDVAPKYKADLIVCGATGLNAVERLLIGSVSENIVRHAKCDVLVVRTPKE | soluble
8 | MTYTTRQIGAKNTLEYKVYIEKDGKPVSAFHDIPLYADKENNIFNMVVEIPRWTNAKLEITKEETLNPIIQDTKKGKLKFVRNCFPHHGYIHNYGAFPQTWEDPNVSHPETKAVGDNDPIDVLEIGETIAYTGQVKQVKALGIMALLDEGETDWKVIAIDINDPLAPKLNDIEDVEKYFPGLLRATNEWFRIYKIPDGKPENQFAFSGEAKNKKYALDIIKETHDSWKQLIAGKSSDSKGIDLTNVTLPDTPTYSKAASDAIPPASLKADAPIDKSIDKWFFISGSV | soluble
9 | MVAAAAATGILSLCGSPALADSHADGAATNSPGAVSGNALQVPVDVPVNACGNTVDVIAALNPAFGNECENASDEKTDGHGGGYGEDASSSSSSSTSASSSGSHADGATEGSPGVGSGNNAQVPVDVPVNLCGNTVDVIAALNPVFGNKCENDAEEPPGYGEEEPPPPTTPPGYGEEEPPPPTHEEPPPPSGEEEPPPPSEEEHTPPAPQTEQPPALAETGSEGTLGAAAAGAVLIAGGAILYRRGRALSGRLEHHHHHH | not soluble
10 | MVAATPVQFVLPPLPEAPTAAAARLDGLSLADSGGGAGVRTVRLREALYGAGPYESADASMAELAAQIASLDRDKARSALAAVWQATVLGRPNRAANQVALAAAGGVLLLVDVAVQRLAGVRLEGGARSCSREDEEEAVMALLVLENLSCNVSLHRDMVLGAPGPHLLQMLVALAKDNTAAAAVRVNAAKVLVNLTFSQIELAAAATEAGALPAAVSLLQAGQKQALAETDAEVALGLHRQGAWLLSHLTAGQGCQARELLAAQPQALARIKDLLTTSRDTATLIRCCEVVCNLARGDVGPHAELIRAGLVQVLLKLVEVETEAPAPTGAARSEGSSVDLLLPALTALAALAAGGAACARGLLAHAPLLRTLTGALEWSNLISRDHDLSRVMLAAHSLVYVLGRFALRNRIVVPGVRAGVVVDAGMGATPAAATPQAQQVLQESGYVSFAAAMAALGLQQPRYTAAILGTELESGPHSAVASAAYQVNTELLPMMRHDNARMVVNTCARLYQIAVCLRDSPECRSVLSNTSLSLALSDLLRSQHSSVLQAALCLTDALAALPEVVPQLAANGVLDRLCDLLHNTSAQPQEHKAGTADTAGDPLVVLLAERALVTMFLTRGQHQAE | not soluble
11 | MVADIELDAAQSIAAVLFDKDGTLLGYDASWGPVNRELASIAAKGDAALADRLLAACGMDPVTGHVVPDSLLAAGNTAEIAAGLVAAGSSCDVVELTQRLDRLFTEAADKSVPVTDLKAFFARLKARGYKLGIASSDNENSIRQTAIRFGFEEDIDFVAGYDSGYGTKPQPGMVLGFCEAIGFPPERVAVVGDNNHDLHMAKNAGAGLRIAVLTGTGSRESLGADAHYCFDDITGLEALLPERAV | not soluble
12 | MVAGFTVHSGPHHVPHRDMTHHSRPPGHAPRVTILMPVYNGEKYLAAAMESILDQTFRDFILLIIDDGSSDSSLAIARSFGDPRVQVERNPKNLGLVKTLNRGLDLVQTEFVARMDCDDIALPDRLEKQIAFLDENPDIGMCGTAYELFHESLRQTIRPPCRHEEIVYGLLDDNVFLHSSVIVRMEVLNRHGLRYREDYRLAEDYELWARLARYTHIGNLPQVLVRYRSHPENVSNTNKGEQIATRDRVRLEHLESFGLAPAADQKTLHIDLFSLAFQGSPDQLADARRWLEALARAVSTRCGLPLGRLHRDFALLWYSACGRSAHHGLTVLFSYLKSAMAWKGPKSYILKLLFRCLMRDPIPAVTK | not soluble
13 | MVAHDETGGLLPIKRTIRVLDVNNQSFREQEEPSNKRVRPLARVTSLANLISPVRNGAVRRFGQTIQSFTLRGDHRSPASAQKFSSRSTVPTPAKRRSSALWSEMLDITMKESLTTREIRRQEAIYEMSRGEQDLIEDLKLARKAYHDPMLKLSIMSEEELTHIFGDLDSYIPLHEDLLTRIGEATKPDGTVEQIGHILVSWLPRLNAYRGYCSNQLAAKALLDQKKQDPRVQDFLQRCLESPFSRKLDLWSFLDIPRSRLVKYPLLLKEILKHTPKEHPDVQLLEDAILIIQGVLSDINLKKGESECQYYIDKLEYLDEKQRDPRIEASKVLLCHGELRSKSGHKLYIFLFQDILVLTRPVTRNERHSYQVYRQPIPVQELVLEDLQDGDVRMGGSFRGAFSNSEKAKNIFRIRFHDPSPAQSHTLQANDVFHKQQWFNCIRAAIAPFQSAGSPPELQGLPELHEECEGNHPSARKLTAQRRASTVSSVTQVEVDENAYRCGSGMQMAEDSKSLKTHQTQPGIRRARDKALSGGKRKETLV | soluble
14 | MVAMFLAVAVVLGLATSPTAEGGKATTEEQKLIEDVNASFRAAMATTANVPPADKYKTFEAAFTVSSKRNLADAVSKAPQLVPKLDEVYNAAYNAADHAAPEDKYEAFVLHFSEALRIIAGTPEVHAVKPGA | soluble
15 | MVARDTTAPQVKIVNPVTGNVSGSNVPISVNASDDSGASGITYALYIDGVLKATGKGSTLGYNWNIRNVAAGAHTVQVVAKDAAGNSASSSVSVTVVKLEHHHHHH | not soluble
16 | MVARSPKGCQEKPVASGKSGIMPSSGRGFRALAPRTLAPFQGAFGGGPSSPGGPHEGGPTPWPTRWRSGSSASGARAGVTPRTLRRIFLEEVERELGPEKARLLAKQTLPFEEIFVVEGRKQRPFSKGLLTRSLEDAGFSLREAHELAKAVERRLRLEGVRRIPAKRLEKVVAEEARRLYGPEAGERYRARLLYAGELFVEEAPGAPRVPFSKGILAQSLMAIGLSPDRAFRLAREMEVALHREGVQVIRRDELRRRVHQALLREAGEEMARRYLILRSLRKQPRPVHILIGGVTGVGKSVLASALAYRLGITHIVPSDAVREVFRVSLSKDLLPTLHLSTFEAWRALSPGLGLEGESYEVQVMRGFLDQVAKVAVGLKAIQERSALEGTSIVLEGVHVVPRFLQHPYQDRVFTIPMLVAVQDENLHRDRFLLRDRETGHARPKERYLQHFEEIRLIQNHLLRWAREEGIPVIPGEDLDEGIEKALEVLVAYLEAQGQRLEEAHA | soluble
17 | MVASSINEESSLAVNLTSDVEKASKTLFKAFEKSYANDYLMKKFFHIPITEKVSRARINAMIHYYTTCYHDLDGEIAEANDFDAVAIWSRPGCHLPATLSDDESFNKIFFSRLDCEEARSHASGNGLLLPLCHRKRS | not soluble
18 | MVCFASLFEEVSMHTCPLCHNQHTRHYFEDKHREYLQCEQCYLVFVNPDQRLDAETEKAHYDLHENNPEDIGYRRFLSRIADPITERISPQSNGIDFGCGPGPTLSLMLEEAGHNMALYDIYYHPDTAVLEKQYDFMTATEVIEHLYHPDVVWKQWLNLVKPGGWIGLMTKMVIDVEAFKSWHYKNDPTHVVFFSRDTFQFLAERDKLELEFIGNDVILLRKTQLEHHHHHH | soluble
19 | MVCSGAPVALIPTSSGAIMLDYPSMRAVALVARTGSFEKAAQVLCVTPSAVSQRIKQLEERLGVVLIVRGNPCVATEKGEWLCRHMDHVGMLESELFRQLPALTEAGDAQERVTLNIATNADSLGTWFLDAVSKFTGGSDYLVNIAVDDQDHTVEWLRGGRVLAAVTAHDKPVQGCRVTPLGVLRYHATASPDFMARHFADGVTPAALARAPGLTFNQKDRLQASWIRTALGEDVSYPTHWLPSTDGFVKASLAGMGWGLNPVQLVAEHLAAGRLVELMPGTPLDIPLYWQVNRLAAERLAGLTANMVGTARVVLMPVG | soluble
20 | MVDQAQDTLRPNNRLSDMQATMEQTQAVENRVLERLNAGKTVRSFLITAVELLTEAVNLLVLQVFRKDDYAVKYAVEPLLDGDGPLGDLSVRLKLIYGLGVINRQEYEDAELLMALREELNHDGNEYAFTDDEILGPFGELHCVAALPPPPQFEPADSSLYAMQIQRYQQAVRSTMVLSLTELISKISLKKAFQK | not soluble
21 | MVDSIIFDLDGTLWDSTEEVCKVWQDVLSEHKEIELSVTKDLFRSLMGLSFEEIANRLFPNLSEEERMNLLNECSLKECDYLSENGAKLFDDIEDTLKLLSKKYKLFIVSNCQAGYIESFLKAHKLEQYFIDFECPGNTGLHKGENNKLIIERNKLINPIYVGDTQGDANSAKFVGIPFIYAKYGFGNVDVYDYFIDSFKDLLEHDILK | not soluble
